This note sets out measurements from PMC7948495, “The flexible N-terminus of BchL autoinhibits activity through interaction with its [4Fe-4S] cluster and released upon ATP binding” (The Journal of Biological Chemistry, 2020).

The experiment deals with BchNB (NB-protein of DPOR) from Rhodobacter sphaeroides (Rhodobacter sphaeroides).

On to “linked-BchL (two BchL subunits expressed as a single polypeptide, joined by a flexible linker) (enzyme)”, for which the kobs of Pchlide reduction measured as Chlide formation (with BchNB, Pchlide and ATP) was found to be 0.0148 µM/min.
